IntAct's records for PubMed 17932490

B1: Serine/threonine-protein kinase 4 (Homo sapiens), Q13043 (parent)
chain: METVQLRNPPRRQLKKLDEDSLTKQPEEVFDVLEKLGEGSYGSVYKAIHKETGQIVAIKQVPVESDLQEIIKEISIMQQCDSPHVVKYYGSYFKNTDLWIVMEYCGAGSVSDIIRLRNKTLTEDEIATILQSTLKGLEYLHFMRKIHRDIKAGNILLNTEGHAKLADFGVAGQLTDTMAKRNTVIGTPFWMAPEVIQEIGYNCVADIWSLGITAIEMAEGKPPYADIHPMRAIFMIPTNPPPTFRKPELWSDNFTDFVKQCLVKSPEQRATATQLLQHPFVRSAKGVSILRDLINEAMDVKLKRQESQQREVDQDDEENSEEDEMDSGTMVRAVGDEMGTVRVASTMTDGANTMIEHDDTLPSQLGTMVINAEDEEEEGTMKRRDETMQPAKPSFLEYFEQKEKENQINSFGKSVPGPLKNSSDWKIPQDGDYEFLKSWTVEDLQKRLLALDPMMEQEIEEIRQKYQSKRQPILDAIEAKKRRQQNF

Variants of: B1
Details: with akt1_human AKT1, P31749
Sequence of akt1_human AKT1, P31749 (P31749 whole entry): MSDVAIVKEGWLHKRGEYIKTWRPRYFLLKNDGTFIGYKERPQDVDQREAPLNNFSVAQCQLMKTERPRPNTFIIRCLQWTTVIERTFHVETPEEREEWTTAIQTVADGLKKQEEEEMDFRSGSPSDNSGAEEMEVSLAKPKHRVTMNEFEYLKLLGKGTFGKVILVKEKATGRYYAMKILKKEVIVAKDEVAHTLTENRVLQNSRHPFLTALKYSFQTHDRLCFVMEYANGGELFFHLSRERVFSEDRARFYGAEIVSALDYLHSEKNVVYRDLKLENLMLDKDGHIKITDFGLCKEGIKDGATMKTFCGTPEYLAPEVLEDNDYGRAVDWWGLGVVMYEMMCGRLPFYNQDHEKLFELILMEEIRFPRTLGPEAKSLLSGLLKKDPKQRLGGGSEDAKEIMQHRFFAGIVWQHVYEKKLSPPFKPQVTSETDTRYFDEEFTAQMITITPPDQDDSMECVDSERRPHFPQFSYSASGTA

| effect of a mutation on the interaction | Variant |
| --- | --- |
| disrupting interaction | K59R |
